Assay results reported in paper PMC6358694, “Crystal structure of the WD40 domain dimer of LRRK2” (Proceedings of the National Academy of Sciences of the …, 2019).

Assays:
[1] = target: the molecule itself; test: SEC; gel filtration chromatography; WT serially diluted from 2 mg/mL to 0.25 mg/mL; mutants compared with WT at matched concentrations by elution position
[2] = target: the molecule itself; test: SEC-MALS; MBP-tagged WD40 domain injected at 2 mg/mL; in-line size exclusion column, three-angle light scattering and refractive index detectors

Protein | binding result [1] | stoichiometry N [2]
LRRK2 WD40 domain mutant M2408E (domain or fragment, human, UniProt Q5S007 2142-2527, looked up, LRRK2, human, WD40 domain, residues 2142-2527, with M2408E; Probably MBP-tagged and from Sf9 as the WT; methods in the SI Appendix; source: purified proteins) RRILLPKNVIVECMVATHHNSRNASIWLGCGHTDRGQLSFLDLNTEGYTSEEVADSRILCLALVHLPVEKESWIVSGTQSGTLLVINTEDGKKRHTLEKMTDSVTCLYCNSFSKQSKQKNFLLVGTADGKLAIFEDKTVKLKGAAPLKILNIGNVSTPLMCLSESTNSTERNVMWGGCGTKIFSFSNDFTIQKLIETRTSQLFSYAAFSDSNIITVVVDTALYIAKQNSPVVEVWDKKTEKLCGLIDCVHFLREVMVKENKESKHKESYSGRVKTLCLQKNTALWIGTGGGHILLLDLSTRRLIRVIYNFCNSVRVMMTAQLGSLKNVMLVLGYNRKNTEGTQKQKEIQSCLTVWDINLPHEVQNLEKHIEVRKELAEKMRRTSVE | binds | –
MBP-tagged LRRK2 WD40 domain, wild type (domain or fragment, human, UniProt Q5S007 2142-2527, looked up, leucine-rich repeat kinase 2 (LRRK2), human, WD40 domain, residues 2142-2527; MBP-tagged monomer calculated at about 83 kDa; The tag is named for the MALS runs; also called WT WD40 domain; source: Sf9 insect cells via baculovirus infection, purified to homogeneity) RRILLPKNVIVECMVATHHNSRNASIWLGCGHTDRGQLSFLDLNTEGYTSEEVADSRILCLALVHLPVEKESWIVSGTQSGTLLVINTEDGKKRHTLEKMTDSVTCLYCNSFSKQSKQKNFLLVGTADGKLAIFEDKTVKLKGAAPLKILNIGNVSTPLMCLSESTNSTERNVMWGGCGTKIFSFSNDFTIQKLIETRTSQLFSYAAFSDSNIITVVVDTALYIAKQNSPVVEVWDKKTEKLCGLIDCVHFLREVMVKENKESKHKMSYSGRVKTLCLQKNTALWIGTGGGHILLLDLSTRRLIRVIYNFCNSVRVMMTAQLGSLKNVMLVLGYNRKNTEGTQKQKEIQSCLTVWDINLPHEVQNLEKHIEVRKELAEKMRRTSVE | – | 2
LRRK2 WD40 domain PD-associated variant Y2189C (domain or fragment, human, UniProt Q5S007 2142-2527, looked up, LRRK2, human, WD40 domain, residues 2142-2527, with the PD-associated variant Y2189C; Probably MBP-tagged and from Sf9 as the WT; methods in the SI Appendix; source: purified proteins) RRILLPKNVIVECMVATHHNSRNASIWLGCGHTDRGQLSFLDLNTEGCTSEEVADSRILCLALVHLPVEKESWIVSGTQSGTLLVINTEDGKKRHTLEKMTDSVTCLYCNSFSKQSKQKNFLLVGTADGKLAIFEDKTVKLKGAAPLKILNIGNVSTPLMCLSESTNSTERNVMWGGCGTKIFSFSNDFTIQKLIETRTSQLFSYAAFSDSNIITVVVDTALYIAKQNSPVVEVWDKKTEKLCGLIDCVHFLREVMVKENKESKHKMSYSGRVKTLCLQKNTALWIGTGGGHILLLDLSTRRLIRVIYNFCNSVRVMMTAQLGSLKNVMLVLGYNRKNTEGTQKQKEIQSCLTVWDINLPHEVQNLEKHIEVRKELAEKMRRTSVE | binds | –
